Measured values published in the Human Domainome abundance scans (Beltran et al. 2025).
± gives the uncertainty stated by the source.

B1: Tripartite motif-containing protein 44, residues 174 to 218; numbered along this chain, Q96DX7 (parent)
chain: VAKRKCPDHGLDLSTYCQEDRQLICVLCPVIGAHQGHQLSTLDEA

Variants of: B1
Test: abundance fitness (aPCA) (normalised: wild type 0, dead -1); higher = more abundant; growth selection in yeast, the domain comes from the species named
Details: Homo sapiens

| Variant | abundance fitness |
| --- | --- |
| VAKRKCPDHGLDLSTYCQEDRQQICVLCPVIGAHQGHQLSTLDEA [L23Q] | 0.058 ± 0.031 |
| VAKRKCPDHGLDLSTYCQEDRQKICVLCPVIGAHQGHQLSTLDEA [L23K] | -0.041 ± 0.04 |
| VAKRKCPDHGLDLSTYCQEDRQTICVLCPVIGAHQGHQLSTLDEA [L23T] | -0.001 ± 0.032 |
| VAKRKCPDHGLDLSTYCQEDRQGICVLCPVIGAHQGHQLSTLDEA [L23G] | -0.001 ± 0.025 |
| VAKRKCPDHGLDLSTYCQEDRQDICVLCPVIGAHQGHQLSTLDEA [L23D] | 0.081 ± 0.039 |
| VAKRKCPDHGLDLSTYCQEDRQIICVLCPVIGAHQGHQLSTLDEA [L23I] | -0.161 ± 0.075 |
| VAKRKCPDHGLDLSTYCQEDRQCICVLCPVIGAHQGHQLSTLDEA [L23C] | -0.116 ± 0.035 |
| VAKRKCPDHGLDLSTYCQEDRQMICVLCPVIGAHQGHQLSTLDEA [L23M] | -0.004 ± 0.036 |
| VAKRKCPDHGLDLSTYCQEDRQFICVLCPVIGAHQGHQLSTLDEA [L23F] | -0.163 ± 0.049 |
| VAKRKCPDHGLDLSTYCQEDRQLIYVLCPVIGAHQGHQLSTLDEA [C25Y] | -0.601 ± 0.12 |
| VAKRKCPDHGLDLSTYCQEDRQLIMVLCPVIGAHQGHQLSTLDEA [C25M] | -0.968 ± 0.079 |
| VAKRKCPDHGLDLSTYCQEDRQLIHVLCPVIGAHQGHQLSTLDEA [C25H] | -0.798 ± 0.088 |
| VAKRKCPDHGLDLSTYCQEDRQLIVVLCPVIGAHQGHQLSTLDEA [C25V] | -1.08 ± 0.055 |
| VAKRKCPDHGLDLSTYCQEDRQLIPVLCPVIGAHQGHQLSTLDEA [C25P] | -0.649 ± 0.054 |
| VAKRKCPDHGLDLSTYCQEDRQLIEVLCPVIGAHQGHQLSTLDEA [C25E] | -0.717 ± 0.041 |
| VAKRKCPDHGLDLSTYCQEDRQLIGVLCPVIGAHQGHQLSTLDEA [C25G] | -0.774 ± 0.031 |
| VAKRKCPDHGLDLSTYCQEDRQLIDVLCPVIGAHQGHQLSTLDEA [C25D] | -0.662 ± 0.072 |
| VAKRKCPDHGLDLSTYCQEDRQLIQVLCPVIGAHQGHQLSTLDEA [C25Q] | -0.65 ± 0.043 |
| VAKRKCPDHGLDLSTYCQEDRQLIRVLCPVIGAHQGHQLSTLDEA [C25R] | -0.728 ± 0.031 |

| Variant | abundance fitness |
| --- | --- |
| VAKRKCPDHGLDLSTYCQEDRQLIFVLCPVIGAHQGHQLSTLDEA [C25F] | -0.926 ± 0.12 |
| VAKRKCPDHGLDLSTYCQEDRQLIIVLCPVIGAHQGHQLSTLDEA [C25I] | -1.11 ± 0.22 |
| VAKRKCPDHGLDLSTYCQEDRQLIKVLCPVIGAHQGHQLSTLDEA [C25K] | -0.634 ± 0.043 |
| VAKRKCPDHGLDLSTYCQEDRQLILVLCPVIGAHQGHQLSTLDEA [C25L] | -1.25 ± 0.1 |
| VAKRKCPDHGLDLSTYCQEDRQLIWVLCPVIGAHQGHQLSTLDEA [C25W] | -1.02 ± 0.054 |
| VAKRKCPDHGLDLSTYCQEDHQLICVLCPVIGAHQGHQLSTLDEA [R21H] | 0.029 ± 0.044 |
| VAKRKCPDHGLDLSTYCQEDAQLICVLCPVIGAHQGHQLSTLDEA [R21A] | 0 ± 0.027 |
| VAKRKCPDHGLDLSTYCQEDMQLICVLCPVIGAHQGHQLSTLDEA [R21M] | -0.016 ± 0.034 |
| VAKRKCPDHGLDLSTYCQEDNQLICVLCPVIGAHQGHQLSTLDEA [R21N] | 0.047 ± 0.039 |
| VAKRKCPDHGLDLSTYCQEDYQLICVLCPVIGAHQGHQLSTLDEA [R21Y] | 0.001 ± 0.095 |
| VAKRKCPDHGLDLSTYCQEDPQLICVLCPVIGAHQGHQLSTLDEA [R21P] | -0.691 ± 0.046 |
| VAKRKCPDHGLDLSTYCQEDEQLICVLCPVIGAHQGHQLSTLDEA [R21E] | 0.043 ± 0.029 |
| VAKRKCPDHGLDLSTYCQEDGQLICVLCPVIGAHQGHQLSTLDEA [R21G] | 0.025 ± 0.025 |
| VAKRKCPDHGLDLSTYCQEDSQLICVLCPVIGAHQGHQLSTLDEA [R21S] | 0.068 ± 0.03 |
| VAKRKCPDHGLDLSTYCQEDKQLICVLCPVIGAHQGHQLSTLDEA [R21K] | 0.063 ± 0.037 |
| VAKRKCPDHGLDLSTYCQEDVQLICVLCPVIGAHQGHQLSTLDEA [R21V] | -0.205 ± 0.029 |
| VAKRKCPDHGLDLSTYCQEDCQLICVLCPVIGAHQGHQLSTLDEA [R21C] | 0.009 ± 0.032 |
| VAKRKCPDHGLDLSTYCQEDDQLICVLCPVIGAHQGHQLSTLDEA [R21D] | 0.071 ± 0.035 |
| VAKRKCPDHGLDLSTYCQEDTQLICVLCPVIGAHQGHQLSTLDEA [R21T] | -0.037 ± 0.033 |

| Variant | abundance fitness |
| --- | --- |
| VAKRKCPDHGLDLSTYCQEDWQLICVLCPVIGAHQGHQLSTLDEA [R21W] | -0.24 ± 0.03 |
| VAKRKCPDHGLDLSTYCQEDRHLICVLCPVIGAHQGHQLSTLDEA [Q22H] | -0.044 ± 0.04 |
| VAKRKCPDHGLDLSTYCQEDRCLICVLCPVIGAHQGHQLSTLDEA [Q22C] | 0.042 ± 0.048 |
| VAKRKCPDHGLDLSTYCQEDRILICVLCPVIGAHQGHQLSTLDEA [Q22I] | -0.094 ± 0.07 |
| VAKRKCPDHGLDLSTYCQEDRELICVLCPVIGAHQGHQLSTLDEA [Q22E] | 0.072 ± 0.029 |
| VAKRKCPDHGLDLSTYCQEDRSLICVLCPVIGAHQGHQLSTLDEA [Q22S] | 0.007 ± 0.033 |
| VAKRKCPDHGLDLSTYCQEDRPLICVLCPVIGAHQGHQLSTLDEA [Q22P] | -0.726 ± 0.096 |
| VAKRKCPDHGLDLSTYCQEDRKLICVLCPVIGAHQGHQLSTLDEA [Q22K] | 0.027 ± 0.037 |
| VAKRKCPDHGLDLSTYCQEDRMLICVLCPVIGAHQGHQLSTLDEA [Q22M] | 0.004 ± 0.035 |
| VAKRKCPDHGLDLSTYCQEDRYLICVLCPVIGAHQGHQLSTLDEA [Q22Y] | 0.02 ± 0.079 |
| VAKRKCPDHGLDLSTYCQEDRVLICVLCPVIGAHQGHQLSTLDEA [Q22V] | -0.039 ± 0.027 |
| VAKRKCPDHGLDLSTYCQEDRLLICVLCPVIGAHQGHQLSTLDEA [Q22L] | -0.074 ± 0.03 |
| VAKRKCPDHGLDLSTYCQEDRGLICVLCPVIGAHQGHQLSTLDEA [Q22G] | -0.109 ± 0.025 |
| VAKRKCPDHGLDLSTYCQEDRDLICVLCPVIGAHQGHQLSTLDEA [Q22D] | -0.014 ± 0.036 |
| VAKRKCPDHGLDLSTYCQEDRRLICVLCPVIGAHQGHQLSTLDEA [Q22R] | -0.001 ± 0.026 |
| VAKRKCPDHGLDLSTYCQEDRALICVLCPVIGAHQGHQLSTLDEA [Q22A] | -0.019 ± 0.027 |
| VAKRKCPDHGLDLSTYCQEDRFLICVLCPVIGAHQGHQLSTLDEA [Q22F] | -0.281 ± 0.048 |
| VAKRKCPDHGLDLSTYCQEDRTLICVLCPVIGAHQGHQLSTLDEA [Q22T] | 0.06 ± 0.037 |
| VAKRKCPDHGLDLSTYCQEDRWLICVLCPVIGAHQGHQLSTLDEA [Q22W] | -0.552 ± 0.032 |
